Laboratory results taken from patent publication US20200270346A1.

Experiments:
[1] = target: human TIGIT-Fc protein (human) (UniProt Q495A1); assay: SPR, Biacore T200, antibody captured on anti-mouse IgG, TIGIT-Fc in solution, 1:1 Langmuir fit
[2] = target: Human TIGIT-His (extracellular domain of hTIGIT with a histidine tag) (human) (UniProt Q495A1); assay: SPR, Biacore T200, antibody captured on anti-mouse IgG, TIGIT-His in solution, 1:1 Langmuir fit
[3] = target: human TIGIT expressed on cells (human) (UniProt Q495A1); assay: cell-based or functional assay
Sequence of human TIGIT expressed on cells (human) (Q495A1 25-244): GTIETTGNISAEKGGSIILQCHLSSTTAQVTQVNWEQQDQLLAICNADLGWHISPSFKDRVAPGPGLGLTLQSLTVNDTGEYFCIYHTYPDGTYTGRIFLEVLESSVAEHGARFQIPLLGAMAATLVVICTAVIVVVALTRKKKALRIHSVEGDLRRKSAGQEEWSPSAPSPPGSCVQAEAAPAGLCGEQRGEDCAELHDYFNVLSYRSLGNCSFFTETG

Sequence of human TIGIT-Fc protein (human) (Q495A1 25-141): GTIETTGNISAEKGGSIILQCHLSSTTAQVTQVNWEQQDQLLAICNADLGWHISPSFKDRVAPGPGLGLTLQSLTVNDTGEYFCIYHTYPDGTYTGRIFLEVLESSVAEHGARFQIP
Sequence of Human TIGIT-His (extracellular domain of hTIGIT with a histidine tag) (human) (Q495A1 25-141 limits assumed): as the sequence (Q495A1 25-141) above

Kd [1]: 0.0165 nM
Kd [2]: 0.0363 nM
EC50 of IL-2 rescue in hTIGIT-Jurkat / THP-1 co-culture [3]: 0.24 µg/mL
Substance: MBSA43 (commercial mouse anti-human TIGIT antibody, eBioscience Cat #12-9500-42)
